From patent US20220340642A1 (Kyowa Kirin, published 2022) come the findings set out here.

Numbering of substitutions follows the chain as printed. Names and notes keep the numbering of the source.

Assay [1] addresses T1, soluble recombinant of cynomolgus monkey FasL (His6, Pro133-Leu280) (UniProt P63308 133-280).
T1 chain: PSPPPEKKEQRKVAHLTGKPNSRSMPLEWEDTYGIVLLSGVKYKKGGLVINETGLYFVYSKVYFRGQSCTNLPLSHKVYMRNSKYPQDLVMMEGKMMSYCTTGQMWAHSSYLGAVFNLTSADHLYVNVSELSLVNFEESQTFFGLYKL
As to the kind of experiment: BIAcore SPR. A digest of the protocol:
(§1)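 The dissociation constant (Kd, nM) reflects binding of each test molecule to soluble recombinant His-tagged human or cynomolgus monkey LIGHT, TL1A or FasL. It was derived from surface plasmon resonance measurements in HBS-EP+ Buffer using a BIAcore T-100 or T-200 instrument (GE Healthcare).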

Assay [2] concerns the target T2, soluble recombinant of cynomolgus monkey TL1A (His6, GS linker, Leu72-Leu251).
T2 chain: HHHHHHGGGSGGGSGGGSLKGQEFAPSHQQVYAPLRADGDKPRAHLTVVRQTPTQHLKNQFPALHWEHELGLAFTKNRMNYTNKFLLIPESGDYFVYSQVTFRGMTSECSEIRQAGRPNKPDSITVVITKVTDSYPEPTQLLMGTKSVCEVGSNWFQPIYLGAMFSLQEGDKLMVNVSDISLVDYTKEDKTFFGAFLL
As to the kind of experiment: BIAcore SPR. A digest of the protocol: as §1

Assay [3] addresses T3, soluble recombinant of cynomolgus monkey LIGHT (His10, GS linker, Asp74-Val240).
T3 chain: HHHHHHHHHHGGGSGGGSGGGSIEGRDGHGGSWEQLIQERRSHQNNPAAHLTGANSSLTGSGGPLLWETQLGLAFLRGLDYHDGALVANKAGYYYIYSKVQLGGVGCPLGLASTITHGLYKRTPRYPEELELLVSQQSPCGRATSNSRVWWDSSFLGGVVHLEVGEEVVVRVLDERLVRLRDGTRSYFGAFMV
Put plainly: BIAcore SPR. A digest of the protocol:
as §1

Assay [4] addresses T4, membrane-bound human LIGHT (human, UniProt O43557 1-240).
T4 construct: whole, on cells; also called LIGHT/HEK293
As to the kind of experiment: flow cytometry on expressing cells. A digest of the protocol: (§2)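 Binding was measured by flow cytometry on HEK293 cells forced to express membrane-bound LIGHT and on cell lines expressing N-terminally Met/FLAG-tagged TL1A or FasL from a CMV-promoter pClpuro vector. Cells at 1×10⁵ cells/well received 1 or 10 μg/mL protein on ice for 1 hour. After washing, cells were stained on ice for 1 hour with LIVE/DEAD Fixable Aqua and R-phycoerythrin goat F(ab′)₂ anti-human IgG (10 ng/mL, 0.1 or 1 μg/mL). Fluorescence was read on a FACS Fortessa.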

The target in assay [5] is T5, membrane-bound human TL1A (Met and FLAG tag at the N-terminus) on CHO-K1 cells (human, UniProt O95150 2-251).
T5 construct: also called TL1A/CHO
T5 sequence: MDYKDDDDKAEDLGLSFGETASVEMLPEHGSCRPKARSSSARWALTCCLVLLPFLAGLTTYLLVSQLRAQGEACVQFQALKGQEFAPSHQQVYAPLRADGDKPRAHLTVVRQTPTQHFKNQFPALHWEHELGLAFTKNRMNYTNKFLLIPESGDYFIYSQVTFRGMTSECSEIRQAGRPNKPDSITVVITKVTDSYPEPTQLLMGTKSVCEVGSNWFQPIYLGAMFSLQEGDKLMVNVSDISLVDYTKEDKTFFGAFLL
Put plainly: flow cytometry on expressing cells. A digest of the protocol: as §2

Assay [6] concerns the target T6, primary soluble TL1A produced from an activated human PBMC (human, UniProt O95150 72-251, limits assumed).
T6 sequence (looked up): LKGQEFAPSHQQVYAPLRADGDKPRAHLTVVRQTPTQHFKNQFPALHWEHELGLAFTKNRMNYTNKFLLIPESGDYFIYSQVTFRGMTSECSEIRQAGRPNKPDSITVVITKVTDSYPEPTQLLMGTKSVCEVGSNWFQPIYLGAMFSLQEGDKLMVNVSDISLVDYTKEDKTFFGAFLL
Put plainly: sandwich ELISA, binder captured. On the procedure: (§3) Then, 10 μg/mL of anti-human IgG antibodies (American Qualex International, Inc.) were immobilized to a 96-well immunoplate (Thermo Scientific), and blocking was performed with 2% Block Ace (DS Pharma Biomedical Co., Ltd.), and then 2 μg/mL of chimera A-Fc, E57K-Fc and 45-18-Fc (in all of which Fc is Eg1S YTE or Eg1S […]) were captured. The culture supernatant of human T cells stimulated for LIGHT production was concentrated 6-fold using Amicon Ultra-15 having a molecular weight cutoff of 3 kDa (Merck Millipore) prerinsed with sterile water. After the plate was washed, the 6-fold concentrated culture supernatant was reacted. As a standard of LIGHT, the soluble recombinant FLAG-LIGHT trimer produced in Example 13 was used. After the plate was washed, a biotinylated anti-LIGHT antibody (R&D Systems, Inc.) was reacted. After the plate was washed, streptavidin-HRP (PIERCE) was reacted. After washing again, a TMB solution (Dako) was added to develop a color. Then, a 2 N sulfuric acid solution was used to stop the chromogenic reaction, and the absorbance at 450 nm (reference wavelength of 570 nm) was measured.
(§4) Sandwich ELISA was performed by the same method as in (1). On a 96-well immunoplate, chimera A-Fc, E57K-Fc and 45-18-Fc (in all of which Fc is Eg1S YTE or Eg1S […]) or the anti-human TL1A antibody produced in Example 16 was captured. Then, with the plate, a 4-fold concentrated culture supernatant of PBMCs stimulated for TL1A production or as a standard, the soluble recombinant His6-TL1A trimer produced in Example 13 was reacted, followed by detection with a biotinylated anti-TL1A antibody (R&D Systems, Inc.).
(§5) Sandwich ELISA was performed by the same method as in (1). On a 96-well immunoplate, chimera A-Fc, E57K-Fc and 45-18-Fc (each including Eg1S YTE or Eg1S […] as an Fc) or Fas-Fc (R&D Systems, Inc.) was captured, and then a 6-fold concentrated culture supernatant of human T cells stimulated for AICD or as a standard, Human His6 Fas Ligand/TNFSF6 (Cell Signaling Technology, Inc.) was reacted, followed by detection with a biotinylated anti-FasL antibody included with Human Fas Ligand ELISA Kit (Abcam plc).

In assay [7] the target is T7, primary soluble FasL produced from human T cells stimulated for AICD (human, UniProt P48023 130-281, limits assumed).
T7 construct: also called soluble FasL derived from human T cells
T7 sequence (looked up): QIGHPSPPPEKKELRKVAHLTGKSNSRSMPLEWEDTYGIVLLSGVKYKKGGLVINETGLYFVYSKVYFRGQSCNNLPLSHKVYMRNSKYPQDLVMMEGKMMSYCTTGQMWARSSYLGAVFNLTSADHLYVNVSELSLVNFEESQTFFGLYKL
Put plainly: sandwich ELISA, binder captured. On the procedure:
as §3, §4, §5

T4 sequence (O43557 whole entry): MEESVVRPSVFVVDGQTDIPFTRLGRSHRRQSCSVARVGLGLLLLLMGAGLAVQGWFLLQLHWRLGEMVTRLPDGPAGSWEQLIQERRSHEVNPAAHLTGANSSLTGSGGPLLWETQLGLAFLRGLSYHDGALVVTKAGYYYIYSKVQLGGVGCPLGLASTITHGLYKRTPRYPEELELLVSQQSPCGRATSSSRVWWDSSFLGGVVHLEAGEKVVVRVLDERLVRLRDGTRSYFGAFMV

B1: chimera A-E57K_R58D-Fc (Eg1S LALAGANA) (Fc fusion)
chain: ETFPPKYLHYDEETSHQLLCDKCPPGTYLKQHCTAKWKTVCAPCPPRHYTQFWNYLKDCRYCNVLCGEREEEARACHATHNRACRCRTGFFAHAGFCLEHASCPPGAGVIAPGTPSQNTQCQPCPDGFFSNETSSKAPCRKHTNCSVFGLLLTQKGNATHDNICSGNSESTQKEPKSSDKTHTCPPCPAPEAAGAPSVFLFPPKPKDTLMISRTPEVTCVVVDVSHEDPEVKFNWYVDGVEVHNAKTKPREEQYNSTYRVVSVLTVLHQDWLNGKEYKCKVSNKALPAPIEKTISKAKGQPREPQVYTLPPSRDELTKNQVSLTCLVKGFYPSDIAVEWESNGQPENNYKTTPPVLDSDGSFFLYSKLTVDKSRWQQGNVFSCSVMHEALHAHYTQKSLSLSPGK
As to B1, the Kd in assay [1] is 0.96 nM; in assay [2] it was 0.19 nM; in assay [3], 0.3 nM. Also, the binding result in assay [4] and in assay [5] was “binds” each time.

B2: chimera A-Fc (Eg1S LALAGANA) (Fc fusion)
chain: B1 chain with K57E, D58R
As to B2, the binding result in assay [6], in assay [7], in assay [4] and in assay [5] was “binds” throughout. For the same molecule, the Kd in assay [1] came out at 0.22 nM; in assay [2], 0.11 nM; in assay [3], 0.21 nM.

B3: chimera A-E57R-Fc (Eg1S YTE) (Fc fusion)
chain: B1 chain with K57R, D58R, A192L, A193L, A195G, M210Y, S212T, T214E, A392N
For the molecule B3, the Kd in assay [1] turned out to be 1.2 nM; in assay [2], 0.36 nM; in assay [3], 0.3 nM. In addition, the binding result in assay [4] and in assay [5] was “binds” each time.

B4: chimera A-E57R-Fc (Eg1S LALAGANA) (Fc fusion)
chain: B1 chain with K57R, D58R
In the case of B4, the Kd is 1.1 nM in assay [1], 0.32 nM in assay [2] and 0.29 nM in assay [3]. The binding result in assay [4] and in assay [5] was “binds” throughout.

B5: chimera A-E57K_R58E-Fc (Eg1S LALAGANA) (Fc fusion)
chain: B1 chain with D58E
In the case of B5, the binding result in assay [6], in assay [7], in assay [4] and in assay [5] was “binds” in each case. Also, the Kd in assay [1] was 0.99 nM; in assay [2], 0.17 nM; in assay [3] it was 0.28 nM.

B6: chimera A-E57V-Fc (Eg1S LALAGANA) (Fc fusion)
chain: B1 chain with K57V, D58R
Consider B6, for which the Kd in assay [1] was 1.1 nM; in assay [2], 0.21 nM; in assay [3], 0.35 nM. Besides, the binding result in assay [4] and in assay [5] was “binds” throughout.

B7: chimera A-E57K-Fc (Eg1S LALAGANA) (Fc fusion)
chain: B1 chain with D58R
Consider B7, for which the binding result in assay [6], in assay [7], in assay [4] and in assay [5] was “binds” in each case. The Kd was 1.1 nM in assay [1], 0.27 nM in assay [2] and 0.28 nM in assay [3].

B8: chimera A-E57K-Fc (Eg1S YTE) (Fc fusion)
chain: B1 chain with D58R, A192L, A193L, A195G, M210Y, S212T, T214E, A392N
B8: the binding result in assay [6], in assay [7], in assay [4] and in assay [5] was “binds” throughout. Besides, the figures for the Kd in assay [1], in assay [2] and in assay [3] were 1.1 nM, 0.31 nM and 0.26 nM, respectively.

B9: chimera A-E57V-Fc (Eg1S YTE) (Fc fusion)
chain: B1 chain with K57V, D58R, A192L, A193L, A195G, M210Y, S212T, T214E, A392N
As for B9, the Kd came out at 1.1 nM in assay [1], 0.22 nM in assay [2] and 0.34 nM in assay [3]. Also, the binding result in assay [4] and in assay [5] was “binds” in each case.

B10: chimera A-Fc (Eg1S YTE) (Fc fusion)
chain: B1 chain with K57E, D58R, A192L, A193L, A195G, M210Y, S212T, T214E, A392N
In the case of B10, the binding result in assay [6], in assay [7], in assay [4] and in assay [5] was “binds” in each case. Besides, the Kd in assay [1] was found to be 0.27 nM; in assay [2] it was 0.17 nM; in assay [3] it was 0.28 nM.

B11: chimera A-E57K_R58D-Fc (Eg1S YTE) (Fc fusion)
chain: B1 chain with A192L, A193L, A195G, M210Y, S212T, T214E, A392N
notes: also called 45-10-Fc (Eg1S YTE)
For the molecule B11, the Kd in assay [1] worked out at 1.2 nM; in assay [2] it was 0.25 nM; in assay [3], 0.31 nM. Besides, the binding result in assay [4] and in assay [5] was “binds” throughout.

B12: chimera A-E57K_R58E-Fc (Eg1S YTE) (Fc fusion)
chain: B1 chain with D58E, A192L, A193L, A195G, M210Y, S212T, T214E, A392N
notes: also called 45-18-Fc (Eg1S YTE)
B12: the binding result in assay [6], in assay [7], in assay [4] and in assay [5] was “binds” in each case. Also, the Kd was 1.2 nM in assay [1], 0.21 nM in assay [2] and 0.35 nM in assay [3].
